# Test results: IntAct's records for PubMed 22265413
# B1: Receptor-interacting serine/threonine-protein kinase 3 (Homo sapiens), Q9Y572 (parent)
# chain: MSCVKLWPSGAPAPLVSIEELENQELVGKGGFGTVFRAQHRKWGYDVAVKIVNSKAISREVKAMASLDNEFVLRLEGVIEKVNWDQDPKPALVTKFMENGSLSGLLQSQCPRPWPLLCRLLKEVVLGMFYLHDQNPVLLHRDLKPSNVLLDPELHVKLADFGLSTFQGGSQSGTGSGEPGGTLGYLAPELFVNVNRKASTASDVYSFGILMWAVLAGREVELPTEPSLVYEAVCNRQNRPSLAELPQAGPETPGLEGLKELMQLCWSSEPKDRPSFQECLPKTDEVFQMVENNMNAAVSTVKDFLSQLRSSNRRFSIPESGQGGTEMDGFRRTIENQHSRNDVMVSEWLNKLNLEEPPSSVPKKCPSLTKRSRAQEEQVPQAWTAGTSSDSMAQPPQTPETSTFRNQMPSPTSTGTPSPGPRGNQGAERQGMNWSCRTPEPNPVTGRPLVNIYNCSGVQVGDNNYLTMQQTTALPTWGLAPSGKGRGLQHPPPVGSQEGPKDPEAWSRPQGWYNHSGK
# partner: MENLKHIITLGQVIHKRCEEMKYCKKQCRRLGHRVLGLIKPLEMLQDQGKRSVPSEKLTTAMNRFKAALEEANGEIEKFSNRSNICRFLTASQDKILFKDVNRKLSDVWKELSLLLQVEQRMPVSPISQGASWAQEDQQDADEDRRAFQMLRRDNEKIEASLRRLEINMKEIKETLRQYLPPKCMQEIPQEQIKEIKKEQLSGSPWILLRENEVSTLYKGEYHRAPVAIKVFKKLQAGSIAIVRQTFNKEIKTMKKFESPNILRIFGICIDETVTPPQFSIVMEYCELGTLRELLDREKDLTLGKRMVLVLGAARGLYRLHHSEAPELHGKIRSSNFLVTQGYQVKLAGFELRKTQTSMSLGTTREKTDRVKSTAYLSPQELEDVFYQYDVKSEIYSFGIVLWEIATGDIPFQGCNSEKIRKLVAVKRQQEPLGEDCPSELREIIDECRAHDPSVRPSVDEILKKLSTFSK
# B2: Mixed lineage kinase domain-like protein (Homo sapiens), Q8NB16 (parent)
# chain: B1 partner
# Variants of: B1
# Conditions: with mlkl_human MLKL
row,Variant,effect of a mutation on the interaction
1,D142N,disrupting interaction
2,S227A,disrupting interaction

# Variants of: B1
# Conditions: with mlkl_human MLKL
# Remark: another data set of the same source
row,Variant,effect of a mutation on the interaction
1,K50A,decreasing interaction

# Variants of: B2
# Conditions: with ripk3_human RIPK3, Q9Y572
row,Variant,effect of a mutation on the interaction
1,MENLKHIITLGQVIHKRCEEMKYCKKQCRRLGHRVLGLIKPLEMLQDQGKRSVPSEKLTTAMNRFKAALEEANGEIEKFSNRSNICRFLTASQDKILFKDVNRKLSDVWKELSLLLQVEQRMPVSPISQGASWAQEDQQDADEDRRAFQMLRRDNEKIEASLRRLEINMKEIKETLRQYLPPKCMQEIPQEQIKEIKKEQLSGSPWILLRENEVSTLYKGEYHRAPVAIKVFKKLQAGSIAIVRQTFNKEIKTMKKFESPNILRIFGICIDETVTPPQFSIVMEYCELGTLRELLDREKDLTLGKRMVLVLGAARGLYRLHHSEAPELHGKIRSSNFLVTQGYQVKLAGFELRKTQAAMSLGTTREKTDRVKSTAYLSPQELEDVFYQYDVKSEIYSFGIVLWEIATGDIPFQGCNSEKIRKLVAVKRQQEPLGEDCPSELREIIDECRAHDPSVRPSVDEILKKLSTFSK [T357A;S358A],disrupting interaction
2,MENLKHIITLGQVIHKRCEEMKYCKKQCRRLGHRVLGLIKPLEMLQDQGKRSVPSEKLTTAMNRFKAALEEANGEIEKFSNRSNICRFLTASQDKILFKDVNRKLSDVWKELSLLLQVEQRMPVSPISQGASWAQEDQQDADEDRRAFQMLRRDNEKIEASLRRLEINMKEIKETLRQYLPPKCMQEIPQEQIKEIKKEQLSGSPWILLRENEVSTLYKGEYHRAPVAIKVFKKLQAGSIAIVRQTFNKEIKTMKKFESPNILRIFGICIDETVTPPQFSIVMEYCELGTLRELLDREKDLTLGKRMVLVLGAARGLYRLHHSEAPELHGKIRSSNFLVTQGYQVKLAGFELRKTQEDMSLGTTREKTDRVKSTAYLSPQELEDVFYQYDVKSEIYSFGIVLWEIATGDIPFQGCNSEKIRKLVAVKRQQEPLGEDCPSELREIIDECRAHDPSVRPSVDEILKKLSTFSK [T357E;S358D],decreasing interaction
